Assay [1] has as its target T1, human EpCAM protein (human, UniProt P16422 24-265).
T1 construct: biotinylated in the Octet assays; also called hu EpCAM; biotinylated human EpCAM protein
T1 sequence (looked up): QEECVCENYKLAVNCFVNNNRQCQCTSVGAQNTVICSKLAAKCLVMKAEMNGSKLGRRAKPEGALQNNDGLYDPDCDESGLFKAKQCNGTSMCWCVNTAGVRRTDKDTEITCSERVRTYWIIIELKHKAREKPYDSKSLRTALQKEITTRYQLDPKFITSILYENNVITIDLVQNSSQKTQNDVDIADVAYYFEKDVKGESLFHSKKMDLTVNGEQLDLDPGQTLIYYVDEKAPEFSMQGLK
Description: colorimetric ELISA. An excerpt:
(§1) Llamas were immunized with purified EpCAM protein expressed in Expi293 cells. A phage display library for expression of heavy variable antibody domains was constructed from circulating B cells. See van der Linden, de Geus, Stok, Bos,van Wassenaar, Verrips, and Frenken. 2000. J Immunol Methods 240:185-195. Phage clones were screened for binding to EpCAM by expressing anti-EpCAM proteins in E coli, preparing periplasmic extracts, and proteins were screened for human and cynomolgus EpCAM binding activity using a colorimetric ELISA.
Background: In an ELISA, binding on a coated surface is turned into a signal by an enzyme label.

Assay [2] addresses T2, cynomolgus EpCAM protein (cynomolgus monkey).
T2 construct: biotinylated in the Octet assays; also called cy EpCAM; cynomolgus monkey EpCAM
Put plainly: colorimetric ELISA.
Excerpt: as §1

Where a chain is given by its changes, count along the chain named.

T2 sequence (Q1WER1 24-265): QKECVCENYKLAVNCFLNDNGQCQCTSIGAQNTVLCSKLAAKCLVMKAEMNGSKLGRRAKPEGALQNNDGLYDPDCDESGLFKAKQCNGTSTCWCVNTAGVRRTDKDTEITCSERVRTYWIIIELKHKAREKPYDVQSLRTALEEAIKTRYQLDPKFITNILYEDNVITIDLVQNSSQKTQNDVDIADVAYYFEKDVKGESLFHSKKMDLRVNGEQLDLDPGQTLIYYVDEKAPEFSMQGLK

B1: Llama anti-EpCAM single domain antibody EPL83 (VHH)
VHH: QVQLQESGGGLVQAGGSLRLSCAVSGSIFSLNTLAWYRQAPGRQRDLIARITGGGTTVYADSVKGRFTISRDNAKNTVYLQMNSLKPEDTAVYYCNLMVRHPSGSTYEYWGQGTQVTVSS
notes: E. coli periplasmic extract
On to B1, for which, in assay [1], the ELISA absorbance amounted to 2 absorbance and the “Human EpCAM/Control” value worked out at 3 ratio. Also, in assay [2], the “Cynomolgus EpCAM/Control” value worked out at 2 ratio and the ELISA absorbance came out at 1.1 absorbance.

B2: Llama anti-EpCAM single domain antibody EPL10 (VHH)
VHH: QVQLQESGGGLVQAGGSLRLSCAASGSVFRANVMGWYRQAPGKQHELVARIDPGGTTTYADPVKGRFTISRDNAKKTVYLQMNSLKPDDTAVYYCNAIILLSGGPKDYWGQGTQVTVSS
notes: E. coli periplasmic extract
Regarding B2, in assay [1], the ELISA absorbance is 2.7 absorbance and the “Human EpCAM/Control” value stood at 12 ratio. In addition, in assay [2], the “Cynomolgus EpCAM/Control” value stood at 9 ratio and the ELISA absorbance was 2 absorbance.

B3: Llama anti-EpCAM single domain antibody EPL159 (VHH)
VHH: QVQLQESGGGLVQAGGSLRLSCAASGFAFGNHWMYWYRQAPGRGRELVASISSGGSTNYVDSVKGRFTISRDNARNTVYLQMYSLKPEDTAVYYCGTSDNWGQGTQVTVSS
notes: E. coli periplasmic extract
On to B3, for which, in assay [2], the “Cynomolgus EpCAM/Control” value came to 2 ratio and the ELISA absorbance amounted to 0.2 absorbance.

B4: Llama anti-EpCAM single domain antibody EPL82 (VHH)
VHH: QVQLQESGGGLVQAGGSLKLSCTASGTILSTMAWYRQAPGKQRELVATISRGGTTNYSDSVKGRFAISRDSTKNTVYLQMNSLKPEDTAVYYCNTPLTDYGMGYNWGQGTQVTVSS
notes: E. coli periplasmic extract
Regarding B4, in assay [1], the ELISA absorbance is 0.9 absorbance and the “Human EpCAM/Control” value worked out at 4 ratio. In assay [2], the “Cynomolgus EpCAM/Control” value was found to be 5 ratio and the ELISA absorbance was found to be 1.1 absorbance.

B5: Llama anti-EpCAM single domain antibody EPL2 (VHH)
VHH: QVQLQESGGGLVQPGGSLRLSCAASESISSFIAVGWYRQAPGKERELVAGINRSGFTYYTDSVKGRFSISRDNAKNTVLLQMTSLKPEDTAVYYCNAGGLYFSNAYTQGDYWGQGTQVTVSS
notes: E. coli periplasmic extract
Turning to B5, in assay [1], the ELISA absorbance stood at 2.2 absorbance and the “Human EpCAM/Control” value amounted to 15 ratio. In assay [2], the “Cynomolgus EpCAM/Control” value stood at 24 ratio and the ELISA absorbance is 3.6 absorbance.

B6: Llama anti-EpCAM single domain antibody EPL43 (VHH)
VHH: B5 VHH with P14T
notes: E. coli periplasmic extract
As for B6, in assay [1], the ELISA absorbance is 1.8 absorbance and the “Human EpCAM/Control” value was determined as 13 ratio. Besides, in assay [2], the “Cynomolgus EpCAM/Control” value was found to be 27 ratio and the ELISA absorbance is 3.8 absorbance.

B7: Llama anti-EpCAM single domain antibody EPL74 (VHH)
VHH: QVQLQESGGGLVQAGGSLRLSCAASGSIFGINAMGWYRQAPGKQRESVAFITIGGNTNYLDSVKGRFTISRDNAKNTVYLQMNGLKPEDTAVYYCNTNPPLILTAGGLYWGQGTQVTVSS
notes: E. coli periplasmic extract
With B7, in assay [1], the ELISA absorbance worked out at 1.4 absorbance and the “Human EpCAM/Control” value turned out to be 10 ratio. Further, in assay [2], the “Cynomolgus EpCAM/Control” value turned out to be 5 ratio and the ELISA absorbance came to 0.7 absorbance.

B8: Llama anti-EpCAM single domain antibody EPL117 (VHH)
VHH: QVQLQESGGGLVQAGGSLRLSCAASGNIVRMTNMAWYRQAPGKQREFVATISAGGSTTYVDSVKDRFTISRDNTKNTVYLQMNYLKPEDTAVYYCATGSILTNRGAIPGSWGHGTQVTVSS
notes: E. coli periplasmic extract
Turning to B8, in assay [1], the ELISA absorbance was 0.9 absorbance and the “Human EpCAM/Control” value amounted to 4 ratio. Besides, in assay [2], the “Cynomolgus EpCAM/Control” value is 3 ratio and the ELISA absorbance worked out at 0.6 absorbance.

B9: Llama anti-EpCAM single domain antibody EPL127 (VHH)
VHH: QVQLQESGGGLVQAGGSLRLSCAAPGFAFNDHAILWFRQAPGKEREGVSEICRDGTTYYTDSVKGRFTISSDNAKNTVYLQMNSVKTDDTAVYYCAVDRRRYYCSGNRAFSSDYYYWGQGTQVTVSS
notes: E. coli periplasmic extract
In the case of B9, in assay [1], the ELISA absorbance was determined as 0.4 absorbance and the “Human EpCAM/Control” value stood at 5 ratio. Besides, in assay [2], the “Cynomolgus EpCAM/Control” value was 11 ratio and the ELISA absorbance was 0.9 absorbance.

B10: Llama anti-EpCAM single domain antibody EPL60 (VHH)
VHH: QVQLQESGGGLVQAGGSLRLSCAASEYILSMYRMAWYRQAPGKVRELVADMSSGGTTNYADFVKGRFTISRDNDRNTVYLQMNRLQPEDTAAYYCNVAGRTGPPSYDAFNNWGQGTQVTVSS
notes: E. coli periplasmic extract
As for B10, in assay [1], the ELISA absorbance stood at 1.1 absorbance and the “Human EpCAM/Control” value is 10 ratio. For the same molecule, in assay [2], the “Cynomolgus EpCAM/Control” value came out at 33 ratio and the ELISA absorbance was determined as 3.5 absorbance.

B11: Llama anti-EpCAM single domain antibody EPL156 (VHH)
VHH: B10 VHH with A14P, G16A, L20V
notes: E. coli periplasmic extract
With B11, in assay [1], the ELISA absorbance was found to be 3.6 absorbance and the “Human EpCAM/Control” value was determined as 16 ratio. In addition, in assay [2], the “Cynomolgus EpCAM/Control” value was found to be 17 ratio and the ELISA absorbance was 4 absorbance.

B12: Llama anti-EpCAM single domain antibody EPL97 (VHH)
VHH: QVQLQESGGGLVQAGGSLRLSCAASGIIFRGTTMGWFRQAPGKQRESVASISPLGTTSYSGSVEGRFTVSRDNAKNTLFLQMNSLKSEDTAVYYCNAIQVTNVGPRVYWGQGTQVTVSS
notes: E. coli periplasmic extract
As to B12, in assay [1], the ELISA absorbance is 2.5 absorbance and the “Human EpCAM/Control” value turned out to be 8 ratio. In assay [2], the “Cynomolgus EpCAM/Control” value was 5 ratio and the ELISA absorbance came out at 1.7 absorbance.

B13: Llama anti-EpCAM single domain antibody EPL58 (VHH)
VHH: QVQLQESGGGLVQAGGSLRLSCAASGPIFSDTIRTMGWYRQAAGKQRELVATIASFPSRTNYVDSVKGRFTISRDIAKNTVYLQMDSLKPEDTAVYYCNVDLASIPTKTYWGQGTQVTVSS
notes: E. coli periplasmic extract
On to B13, for which, in assay [1], the ELISA absorbance was found to be 1.1 absorbance and the “Human EpCAM/Control” value is 8 ratio. In assay [2], the “Cynomolgus EpCAM/Control” value was determined as 4 ratio and the ELISA absorbance came to 0.5 absorbance.

B14: Llama anti-EpCAM single domain antibody EPL49 (VHH)
VHH: QVQLQESGGGLVQAGGSLRLSCAPSGRTSSIFGMGWFRQAPGKEREFVASINWSGGSTSYADSVKGRFTISRDNAKNEMYLQMNSLKFEDTAVYVCAAAVLTNKPSWNFWGQGTQVTVSS
notes: E. coli periplasmic extract
Take B14: in assay [1], the ELISA absorbance is 1.1 absorbance and the “Human EpCAM/Control” value is 8 ratio. Further, in assay [2], the “Cynomolgus EpCAM/Control” value turned out to be 4 ratio and the ELISA absorbance stood at 0.6 absorbance.

B15: Llama anti-EpCAM single domain antibody EPL78 (VHH)
VHH: QVQLQESGGGLVQPGGSLRLSCATSANRFNINVMGWYRQAPGQQRELVATINIGGSTDYADSVKGRFTISRDNAKNTVYLQLSDLKPEDTAVYYCNVKLRVSGPTGPNVYWGQGTQVTVSS
notes: E. coli periplasmic extract
On to B15, for which, in assay [1], the ELISA absorbance came out at 3.1 absorbance and the “Human EpCAM/Control” value was 17 ratio. Further, in assay [2], the “Cynomolgus EpCAM/Control” value was found to be 11 ratio and the ELISA absorbance stood at 2 absorbance.

B16: Llama anti-EpCAM single domain antibody EPL109 (VHH)
VHH: QVQLQESGGGLVQPGGSLRLSCASSGFTLDDYTIGWFRQAPGKEREGVSCISRRDDSTYYADSVKGRFTISRDNAKNTVDLQMISLRPEDTAVYYCAATPRSYTLRCLGKFDFQGQGTQVTVSS
notes: E. coli periplasmic extract
As for B16, in assay [1], the ELISA absorbance was determined as 0.4 absorbance and the “Human EpCAM/Control” value came out at 5 ratio. Moreover, in assay [2], the “Cynomolgus EpCAM/Control” value is 2 ratio and the ELISA absorbance stood at 0.1 absorbance.

B17: Llama anti-EpCAM single domain antibody EPL145 (VHH)
VHH: QVQLQESGGGLVQAGGSLRLSCAASGFIFRAASMGWFRQSPGNERELVATVSSGGFTNYADSVKGRFTISRDNAKNTVYLQMNSLKPEDTAVYFCGATFVRSDGHHTIYGQGTQVTVSS
notes: E. coli periplasmic extract
For B17, in assay [1], the ELISA absorbance came out at 0.6 absorbance and the “Human EpCAM/Control” value is 3 ratio. Moreover, in assay [2], the “Cynomolgus EpCAM/Control” value is 2 ratio and the ELISA absorbance worked out at 0.4 absorbance.

B18: Llama anti-EpCAM single domain antibody EPL138 (VHH)
VHH: B17 VHH with G35D, F37Y, S40F, L47S, V48I, V51I, V100L, Y109N
notes: E. coli periplasmic extract
Take B18: in assay [1], the ELISA absorbance turned out to be 3.1 absorbance and the “Human EpCAM/Control” value stood at 3 ratio. In assay [2], the “Cynomolgus EpCAM/Control” value amounted to 3 ratio and the ELISA absorbance worked out at 2.7 absorbance.

B19: Llama anti-EpCAM single domain antibody EPL118 (VHH)
VHH: B17 VHH with G55D
notes: E. coli periplasmic extract
Consider B19, for which, in assay [1], the ELISA absorbance worked out at 3.4 absorbance and the “Human EpCAM/Control” value was 5 ratio. In assay [2], the “Cynomolgus EpCAM/Control” value came to 4 ratio and the ELISA absorbance was determined as 2.9 absorbance.

B20: Llama anti-EpCAM single domain antibody EPL126 (VHH)
VHH: B17 VHH with F37Y, V51I, S52N, V78G, G96A, V100L, H105Q, H106P, T107P, Y109W
notes: E. coli periplasmic extract
Take B20: in assay [1], the ELISA absorbance worked out at 3.4 absorbance and the “Human EpCAM/Control” value worked out at 5 ratio. Moreover, in assay [2], the “Cynomolgus EpCAM/Control” value stood at 4 ratio and the ELISA absorbance was 2.8 absorbance.

B21: Llama anti-EpCAM single domain antibody EPL164 (VHH)
VHH: QVQLQESGGGLVQAGGSLRLSCAASGFIFRAASMDWYRQSPGTQPELVATISSTGFTNYANSVKGRFTISRDNAKNTVYLQMNSLKPEDTAVYFCGATFLRSDGQHSIYGQGTQVTVSS
notes: E. coli periplasmic extract
Take B21: in assay [1], the ELISA absorbance came to 0.6 absorbance and the “Human EpCAM/Control” value worked out at 7 ratio. In assay [2], the “Cynomolgus EpCAM/Control” value was determined as 34 ratio and the ELISA absorbance came to 2.8 absorbance.

B22: Llama anti-EpCAM single domain antibody EPL90 (VHH)
VHH: B17 VHH with G35A, F37Y, T50S, V51I, G55A, G65A, V100L, Y109N
notes: E. coli periplasmic extract
Turning to B22, in assay [1], the ELISA absorbance was 1.6 absorbance and the “Human EpCAM/Control” value worked out at 10 ratio. In assay [2], the “Cynomolgus EpCAM/Control” value came out at 10 ratio and the ELISA absorbance stood at 1.7 absorbance.
